B1: KIAA1161 (parent)
chain: FMPAMQFSIPPWRYDAEVVAIAQK

Variants of: B1
Test: protein stability index of a GFP-peptide fusion (GPS, HEK-293T) (PSI 1-6); higher = more stable
Details: c terminus: a fixed tail appended
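Further: lentivirally expressed fusions sorted by FACS into six bins by GFP to DsRed ratio, PSI derived from sequencing read proportions per bin multiplied by bin number.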

Variant | protein stability index
FMPAMQFPIPPWRYDAEVVAIAQK [S8P] | 2.1
FMPAMQFGIPPWRYDAEVVAIAQK [S8G] | 1.65
FMPAMQFNIPPWRYDAEVVAIAQK [S8N] | 2.7
FMPAMQFLIPPWRYDAEVVAIAQK [S8L] | 2.05
FMPAMQFKIPPWRYDAEVVAIAQK [S8K] | 2.93
FMPAMQFFIPPWRYDAEVVAIAQK [S8F] | 2.68
FMPAMQFQIPPWRYDAEVVAIAQK [S8Q] | 2.11
FMPAMQFTIPPWRYDAEVVAIAQK [S8T] | 1.64
FMPAMQFCIPPWRYDAEVVAIAQK [S8C] | 1.07
FMPAMQFSIPPWRYDAEVVAIAAK [Q23A] | 2.23
FMPAMQFSIPPWRYDAEVVAIASK [Q23S] | 1.52
FMPAMQFSIPPWRYDAEVVAIAYK [Q23Y] | 1.3
FMPAMQFSIPPWRYDAEVVAIADK [Q23D] | 2.69
FMPAMQFSIPPWRYDAEVVAIAWK [Q23W] | 2.74
FMPAMQFSIPPWRYDAEVVAIAFK [Q23F] | 1.35
FMPAMQFSIPPWRYDAEVVAIATK [Q23T] | 1.92
FMPAMQFSIPPWRYDAEVVAIAMK [Q23M] | 3.29
FMPAMQFSIPPWRYDAEVVCIAQK [A20C] | 2.22
FMPAMQFSIPPWRYDAEVVMIAQK [A20M] | 1.32
FMPAMQFSIPPWRYDAEVVVIAQK [A20V] | 1.91
FMPAMQFSIPPWRYDAEVVFIAQK [A20F] | 2.54
FMPAMQFSIPPWRYDAEVVWIAQK [A20W] | 1.04
FMPAMQFSIPPWRYDAEVVRIAQK [A20R] | 1.98
FMPAMQFSIPPWRYDAEVVQIAQK [A20Q] | 2.41

Variant | protein stability index
FMPAMQFSIPPWRYDAEVVPIAQK [A20P] | 2.16
FMPAMQFSIPPWRYDAEVVKIAQK [A20K] | 2.34
FMPAMQFSIPPWRYDAEVVNIAQK [A20N] | 3.44
FMPAMQFSIPPWRYDAEVVAITQK [A22T] | 2.51
FMPAMQFSIPPWRYDAEVVAISQK [A22S] | 1.94
FMPAMQFSIPPWRYDAEVVAINQK [A22N] | 1.6
FMPAMQFSIPPWRYDAEVVAIYQK [A22Y] | 1.23
FMPAMQFSIPPWRYDAEVVAIVQK [A22V] | 2.01
FMPAMQFSIPPWRYDAEVVAIPQK [A22P] | 2.58
FMPAMQFSIPPWRYDAGVVAIAQK [E17G] | 1.72
FMPAMQFSIPPWRYDAVVVAIAQK [E17V] | 1.24
FMPAMQFSIPPWRYDARVVAIAQK [E17R] | 1.38
FMPAMQFSIPPWRYDANVVAIAQK [E17N] | 1.62
FMPAMQFSIPPWRYDAFVVAIAQK [E17F] | 2.13
FMPAMQFSIPPWRYDADVVAIAQK [E17D] | 1.54
FMPAMQFSIPPWRYDAAVVAIAQK [E17A] | 1.2
FMPAMQFSIPPWRYDAHVVAIAQK [E17H] | 1.92
FQPAMQFSIPPWRYDAEVVAIAQK [M2Q] | 2.71
FHPAMQFSIPPWRYDAEVVAIAQK [M2H] | 1.74
FRPAMQFSIPPWRYDAEVVAIAQK [M2R] | 2.45
FNPAMQFSIPPWRYDAEVVAIAQK [M2N] | 1.61
FAPAMQFSIPPWRYDAEVVAIAQK [M2A] | 2.47
FSPAMQFSIPPWRYDAEVVAIAQK [M2S] | 1.46
FEPAMQFSIPPWRYDAEVVAIAQK [M2E] | 2.83

Variant | protein stability index
FMPAMQISIPPWRYDAEVVAIAQK [F7I] | 2.9
FMPAMQGSIPPWRYDAEVVAIAQK [F7G] | 1.61
FMPAMQMSIPPWRYDAEVVAIAQK [F7M] | 1.91
FMPAMQKSIPPWRYDAEVVAIAQK [F7K] | 1.7
FMPAMQNSIPPWRYDAEVVAIAQK [F7N] | 2.24
FMPAMQLSIPPWRYDAEVVAIAQK [F7L] | 1.82
FMPAMQESIPPWRYDAEVVAIAQK [F7E] | 2.34
FMPAMQSSIPPWRYDAEVVAIAQK [F7S] | 1.6
FMPAMQFSIPPWRYQAEVVAIAQK [D15Q] | 1.94
FMPAMQFSIPPWRYLAEVVAIAQK [D15L] | 1.5
FMPAMQFSIPPWRYTAEVVAIAQK [D15T] | 2.69
FMPAMQFSIPPWRYKAEVVAIAQK [D15K] | 1.25
FMPAMQFSIPPWRYGAEVVAIAQK [D15G] | 1.75
FMPAMQFSIPPWRYNAEVVAIAQK [D15N] | 3.08
FMPAMQFSIPPWRYMAEVVAIAQK [D15M] | 2.56
FMPAMQFSIPPWRYYAEVVAIAQK [D15Y] | 3.05
FMPAMQFSIPPWTYDAEVVAIAQK [R13T] | 2.02
FMPAMQFSIPPWAYDAEVVAIAQK [R13A] | 2.04
FMPAMQFSIPPWNYDAEVVAIAQK [R13N] | 2.51
FMPAMQFSIPPWKYDAEVVAIAQK [R13K] | 2.21
FMPAMQFSIPPWDYDAEVVAIAQK [R13D] | 2.67
FMPAMQFSIPPWIYDAEVVAIAQK [R13I] | 1.81
FMPAMQFSIPPWGYDAEVVAIAQK [R13G] | 1.53
FMPAMQFSIPPWEYDAEVVAIAQK [R13E] | 2.48

Variant | protein stability index
FMPAMKFSIPPWRYDAEVVAIAQK [Q6K] | 1.93
FMPAMEFSIPPWRYDAEVVAIAQK [Q6E] | 1.83
FMPAMAFSIPPWRYDAEVVAIAQK [Q6A] | 2.33
FMPAMVFSIPPWRYDAEVVAIAQK [Q6V] | 3.24
FMPAMYFSIPPWRYDAEVVAIAQK [Q6Y] | 1.34
FMPAMQFSIPPDRYDAEVVAIAQK [W12D] | 2.55
FMPAMQFSIPPSRYDAEVVAIAQK [W12S] | 2.48
FMPAMQFSIPPERYDAEVVAIAQK [W12E] | 2.08
FMPAMQFSIPPNRYDAEVVAIAQK [W12N] | 2.49
FMPAMQFSIPPARYDAEVVAIAQK [W12A] | 2.31
FMPAMQFSIPPYRYDAEVVAIAQK [W12Y] | 1.99
FMPAMQFSIPPIRYDAEVVAIAQK [W12I] | 2.18
FMPAMQFSIPPMRYDAEVVAIAQK [W12M] | 2.7
FMPAMQFSIPPTRYDAEVVAIAQK [W12T] | 2.44
FMPAMQFSIPPLRYDAEVVAIAQK [W12L] | 2.23
FMPAMQFSIPPHRYDAEVVAIAQK [W12H] | 2.53
FMNAMQFSIPPWRYDAEVVAIAQK [P3N] | 2.39
FMMAMQFSIPPWRYDAEVVAIAQK [P3M] | 4
FMCAMQFSIPPWRYDAEVVAIAQK [P3C] | 2.02
FMKAMQFSIPPWRYDAEVVAIAQK [P3K] | 2.58
FMFAMQFSIPPWRYDAEVVAIAQK [P3F] | 1.73
FMQAMQFSIPPWRYDAEVVAIAQK [P3Q] | 1.28

From the supplement of paper PMC10567573
